# Data: article PMC9072662
# Target: Tetrameric photosystem I from Chroococcidiopsis sp. TS-821 isolated with DDM (Chroococcidiopsis sp. TS-821 (endogenous in TS-821 thylakoids))
substance,measurement,value
Tetrameric photosystem I from Chroococcidiopsis sp. TS-821 isolated with DDM (complex),stoichiometry N,4
